Source: US11214624

Target: microtubule (in vitro reconstituted, taxol-stabilised)

B1: HA-tagged wild-type p68 (HA-p68), immunopurified from SW480 cell lysates (protein)
chain: MSGYSSDRDRGRDRGFGAPRFGGSRAGPLSGKKFGNPGEKLVKKKWNLDELPKFEKNFYQEHPDLARRTAQEVETYRRSKEITVRGHNCPKPVLNFYEANFPANVMDVIARQNFTEPTAIQAQGWPVALSGLDMVGVAQTGSGKTLSYLLPAIVHINHQPFLERGDGPICLVLAPTRELAQQVQQVAAEYCRACRLKSTCIYGGAPKGPQIRDLERGVEICIATPGRLIDFLECGKTNLRRTTYLVLDEADRMLDMGFEPQIRKIVDQIRPDRQTLMWSATWPKEVRQLAEDFLKDYIHINIGALELSANHNILQIVDVCHDVEKDEKLIRLMEEIMSEKENKTIVFVETKRRCDELTRKMRRDGWPAMGIHGDKSQQERDWVLNEFKHGKAPILIATDVASRGLDVEDVKFVINYDYPNSSEDYIHRIGRTARSTKTGTAYTFFTPNNIKQVSDLISVLREANQAINPKLLQLVEDRGSGRSRGRGGMKDDRRDRYSAGKRGGFNTFRDRENYDRGYSSLLKRDFGAKTQNGVYSAANYTNGSFGSNFVSAGIQTSFRTGNPTGTYQNGYDSTQQYGSNVPNMHNGMNQQAYAYPATAAAPMIGYPMPTGYSQ
% of gliding microtubules (n = 50), p68/Ca^2+-CaM, ATP: 74.2%
% of gliding microtubules (n = 50), p68/Ca^2+-CaM, no ATP: 5.79%
ATPase activity (inorganic phosphate hydrolyzed from ATP): the protein demonstrated an even stronger microtubule stimulated ATPase activity
Maximum gliding speed, p68/Ca^2+-CaM, ATP: 0.52 µm/min
Maximum gliding speed, p68/Ca^2+-CaM, no ATP: 0.01 µm/min
Mean gliding speed, p68/Ca^2+-CaM, ATP: 0.16 µm/min
Mean gliding speed, p68/Ca^2+-CaM, no ATP: 0 µm/min
